The record followed here is patent US20200009190A1.

The target in the test is CD200 expressed on FBL leukemia cells transduced with CD200 (CD200+ FBL) (UniProt O54901). Nature of the test: cell-based or functional assay.
Chain of CD200 expressed on FBL leukemia cells transduced with CD200 (CD200+ FBL) (O54901 31-278 limits assumed): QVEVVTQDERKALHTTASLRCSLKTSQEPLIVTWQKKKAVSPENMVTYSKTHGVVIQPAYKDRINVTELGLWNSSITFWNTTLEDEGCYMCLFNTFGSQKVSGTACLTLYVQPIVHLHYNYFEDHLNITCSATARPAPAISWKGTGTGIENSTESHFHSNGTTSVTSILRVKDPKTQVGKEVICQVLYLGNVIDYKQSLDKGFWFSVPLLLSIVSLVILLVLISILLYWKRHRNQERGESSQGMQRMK

In the case of “CD200R-9aas-CD28Cys (murine construct V) (from UniProt Q9ES57 26-229; P31041 142-218)”, the accumulation of transduced T cells over multiple cycles of stimulation with irradiated CD200+ FBL was 3 fold; the fold enrichment, stimulation 3/stimulation 1 was determined as 3 fold; the lysis of CD200+ FBL (CFSE-based cytotoxicity assay) amounted to 40%; the percentage of cytokine non-producing cells (flow cytometry) came out at 27%. The same substance returned a percentage of polyfunctional cells producing all 3 cytokines (IFNγ, IL-2, TNFα) of 22%.
